What all share (details): tags: NLS
Series [1] deals with T1, Cas12Max (xCas12i-N243R, v1.1) (N243R).
T1 chain: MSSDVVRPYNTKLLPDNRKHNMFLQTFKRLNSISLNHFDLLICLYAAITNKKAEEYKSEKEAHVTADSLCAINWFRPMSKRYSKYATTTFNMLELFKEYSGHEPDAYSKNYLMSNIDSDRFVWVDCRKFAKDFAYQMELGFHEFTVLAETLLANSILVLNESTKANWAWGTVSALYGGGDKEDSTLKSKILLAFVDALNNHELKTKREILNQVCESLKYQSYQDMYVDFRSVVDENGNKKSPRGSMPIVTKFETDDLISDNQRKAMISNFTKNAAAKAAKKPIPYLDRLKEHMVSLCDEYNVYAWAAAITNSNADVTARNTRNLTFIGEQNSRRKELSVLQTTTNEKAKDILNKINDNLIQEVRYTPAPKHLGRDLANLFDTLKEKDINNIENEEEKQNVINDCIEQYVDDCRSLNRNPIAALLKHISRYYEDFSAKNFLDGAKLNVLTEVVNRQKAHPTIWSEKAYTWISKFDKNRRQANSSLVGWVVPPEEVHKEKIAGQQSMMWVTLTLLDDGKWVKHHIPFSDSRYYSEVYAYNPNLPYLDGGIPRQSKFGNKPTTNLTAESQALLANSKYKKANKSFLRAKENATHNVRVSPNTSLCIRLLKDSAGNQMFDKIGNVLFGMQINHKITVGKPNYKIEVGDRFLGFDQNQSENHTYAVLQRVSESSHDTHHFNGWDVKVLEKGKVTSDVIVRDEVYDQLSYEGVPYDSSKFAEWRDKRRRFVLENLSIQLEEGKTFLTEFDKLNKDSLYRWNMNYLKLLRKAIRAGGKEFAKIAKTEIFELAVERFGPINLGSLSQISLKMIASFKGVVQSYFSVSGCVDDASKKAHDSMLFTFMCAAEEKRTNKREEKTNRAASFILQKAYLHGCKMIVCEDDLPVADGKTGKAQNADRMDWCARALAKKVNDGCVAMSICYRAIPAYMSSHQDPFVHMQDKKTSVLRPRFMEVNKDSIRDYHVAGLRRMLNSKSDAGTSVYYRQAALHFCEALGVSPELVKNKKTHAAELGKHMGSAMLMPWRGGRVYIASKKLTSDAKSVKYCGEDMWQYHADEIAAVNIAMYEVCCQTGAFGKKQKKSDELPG
Nature of the series: cell_activity; PAM TTTG; on-target.

In series [2] the target is T2, xCas12i v5.3 (N243R,D892R).
T2 chain: T1 chain with D892R
Nature of the series: cell_activity; PAM TTTG; on-target.

For series [3], the target named is T1, Cas12Max (xCas12i-N243R, v1.1). Nature of the series: cell_activity; PAM TTTG; OT-1. The procedure:
(§1) HEK293T cells were cultured in 24-well tissue culture plates according to standard methods for 12 hours, before the reporter and expression plasmids were co-transfected into the cells using standard polyethyleneimine (PEI) transfection. The transfected cells were then cultured at 37° C. under 5% CO₂ for 48 hours. Then the cultured cells were analyzed by flow cytometry for BFP, EGFP, and mCherry fluorescent signals. A “blank” control group was also set up, where only the reporter plasmid was transfected, and no expression plasmid was introduced.
(§2) A dual plasmid fluorescent reporter system for evaluation of off-target dsDNA cleavage activity (off-target reporter system; referring to “Off-Target Reporter” in FIG. 1B) was established, which was similar to the dual plasmid fluorescent reporter system in Example 6 for evaluation of (on-target) dsDNA cleavage activity, except that the insertion sequence of the EGxxxxFP coding sequence contains an TTR off-target protospacer sequence (one of SEQ ID NOs: 127-129) containing one or more mismatches (bold, underlined) with a TTR-targeting spacer sequence (SEQ ID NO: 130) in the gRNA, rather than containing a TTR on-target protospacer sequence (SEQ ID NO: 130; which is the same as SEQ ID NO: 107 in Example 5); DR-T1 sequence (SEQ ID NO: 451) was used. To save drafting, the on-target protospacer sequence/spacer sequence in Table 7 refer to both the protospacer sequence (a DNA sequence) and the corresponding spacer sequence (an RNA sequence) with any “T” in the sequence when referring to a protospacer sequences standing for “T” and when referring to a such spacer sequence standing for “U”, although the assigned SEQ ID NO: 130 in the sequence listing is annotated as DNA.

Series [4] has as its target T2, xCas12i v5.3. Nature of the series: cell_activity; PAM TTTG; OT-1. The procedure:
as §1, §2

Numbering of substitutions follows the chain as printed.

B1: TTR.2 crRNA ; TTR ON.1 (ssRNA ; dsDNA)
RNA: AUGACUCAGAAAUGUGUCCCCAGUUGACACUAGAAGGGAUAUACAAAGUGGA
DNA 1: TTTGTAGAAGGGATATACAAAGTGGA
DNA 2: TCCACTTTGTATATCCCTTCTACAAA
B1: the activity in series [1] worked out at 73.8%; with xCas12i v5.3 [2] it was 75.8%.

B2: TTR.2 crRNA ; TTR OT.1 (ssRNA ; dsDNA)
RNA: B1 RNA
DNA 1: TTTGTAGAAGGGATATAGAAAGTATC
DNA 2: GATACTTTCTATATCCCTTCTACAAA
Regarding B2, the results for the activity (in series [3]; with xCas12i v5.3 [4]) were 60.2% and 6.66%, respectively.

Source of the values: patent US20250283063, “NOVEL CRISPR-CAS12I SYSTEMS AND USES THEREOF” (HUIDAGENE THERAPEUTICS (SINGAPORE) PTE. LTD., published 2025).
